{"source": "patent US20030087819", "target": "T1, synthetic apoA-IMilano peptide 167-R173C-184", "T1 chain": "SDELRQCLAARLEALKEN", "data": [{"protein": "recombinant human LCAT enzyme (Lecithin:Cholesterol Acyltransferase) (protein) FWLLNVLFPPHTTPKAELSNHTRPVILVPGCLGNQLEAKLDKPDVVNWMCYRKTEDFFTIWLDLNMFLPLGVDCWIDNTRVVYNRSSGLVSNAPGVQIRVPGFGKTYSVEYLDSSKLAGYLHTLVQNLVNNGYVRDETVRAAPYDWRLEPGQQEEYYRKLAGLVEEMHAAYGKPVFLIGHSLGCLHLLYFLLRQPQAWKDRFIDGFISLGAPWGGSIKPMLVLASGDNQGIPIMSSIKLKEEQRITTTSPWMFPSRMAWPEDHVFISTPSFNYTGRDFQRFFADLHFEEGWYMWLQSRDLLAGLPAPGVEVYCLYGVGLPTPRTYIYDHGFPYTDPVGVLYEDGDDTVATRSTELCGLWQGRQPQPVHLLPLHGIQHLNMVFSNLTLEHINAILLGAYRQGPPASPTASPEPPPPE", "values": [{"measurement": "LCAT activation (esterification of [14C]cholesterol on a proteoliposome substrate), as a percentage of activation obtained with apoA-IWT", "result": "failed in this regard"}]}]}
